Our source for the stoichiometry N values is publication PMC2747018.

By stoichiometry N is commonly meant the number of molecules, sites or subunits per partner or assembly.

The assay addresses U1-A protein of the native human U1 snRNP (human (endogenous in HeLa)) (UniProt P09012). Kind of assay: native MS; nano ESI-MS of the intact U1 snRNP purified from HeLa cells, 200 mM ammonium acetate, Q-ToF2, collision cell 100 V; the complex holds U1 snRNA.
UniProt P09012, sequence (P09012 whole entry): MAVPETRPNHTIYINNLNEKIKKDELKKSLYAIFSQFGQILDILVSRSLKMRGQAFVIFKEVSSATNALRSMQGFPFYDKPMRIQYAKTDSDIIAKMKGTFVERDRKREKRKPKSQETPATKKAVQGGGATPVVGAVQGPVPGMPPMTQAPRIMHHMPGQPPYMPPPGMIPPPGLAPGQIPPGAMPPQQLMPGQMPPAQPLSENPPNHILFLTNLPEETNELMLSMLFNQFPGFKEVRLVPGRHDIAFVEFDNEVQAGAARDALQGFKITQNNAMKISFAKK

Take “Sm-D1 (from UniProt P62314 1-119) (natural protein; other documents disagree on this pair)”: the stoichiometry N turned out to be 1. Then “Sm-F (from UniProt P62306 1-86) (natural protein; other documents disagree on this pair)”, with 1.
